Laboratory results reported in patent US20200347143A1 (GLENMARK PHARMACEUTICALS S A, published 2020).

T1: human OX40 on cells (human, UniProt P43489 29-277)
T1 sequence (looked up): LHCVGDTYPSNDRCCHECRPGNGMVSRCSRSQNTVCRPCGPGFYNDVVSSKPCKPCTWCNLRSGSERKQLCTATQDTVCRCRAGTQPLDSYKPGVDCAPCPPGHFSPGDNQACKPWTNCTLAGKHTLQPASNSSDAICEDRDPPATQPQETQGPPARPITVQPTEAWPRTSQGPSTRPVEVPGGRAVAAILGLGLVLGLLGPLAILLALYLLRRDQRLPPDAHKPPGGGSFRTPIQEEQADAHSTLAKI

T2: recombinant human OX40-his protein (human, UniProt P43489 29-214)
T2 construct: Secreted via the native signal peptide, which lies within residues 1-214; also called Human OX40R-His; histidine tagged human OX40 receptor extracellular domain
T2 sequence: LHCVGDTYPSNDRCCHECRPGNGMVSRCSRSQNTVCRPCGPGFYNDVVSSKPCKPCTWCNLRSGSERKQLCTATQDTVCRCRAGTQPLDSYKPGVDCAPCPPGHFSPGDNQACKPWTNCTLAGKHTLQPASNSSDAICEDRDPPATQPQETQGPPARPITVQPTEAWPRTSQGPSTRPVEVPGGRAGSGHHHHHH


How the values were obtained:
human OX40 on cells [1] = biological target: T1, human OX40 on cells; experiment: cell-based or functional assay
rat OX40-Fc = rat OX40-Fc (rat); experiment: ELISA on coated rat OX40-Fc
Procedure: (§1) These constructs were expressed in HEK293-EBNA1 cells and purified using protein A. Then, human and rat OX40-Fc were tested in ELISA and Biacore to determine antibody cross-reactivity. For the ELISA, 96 well-microtiter plates (Costar USA, distributor VWR AG, Nyon, Switzerland) were coated with 100 μl of recombinant human or rat OX40-Fc at 2 μg/ml in PBS. Plates were incubated overnight at 4° C. and were then blocked with PBS 2% BSA (Bovine Serum Albumine, PAA Laboratories, Pasching, Austria) at room temperature (RT) for one hour. The blocking solution was removed and the purified antibodies were added at 10 μg/ml in PBS 2% BSA. The plates were incubated at RT for 1 hour, then washed 5 times with PBS 0.01% Tween-20 (Sigma-Aldrich Chemie GmbH, Buchs, Switzerland). […] Plates were incubated for 1 hour at RT, washed 5 times with PBS 0.01% Tween-20 and the TMB substrate (Bio-rad Laboratories AG, Reinach, Switzerland) was added to the plates and the reaction stopped after 5 minutes by adding H₂SO₄. Absorbance was then read at 450 nm by a microplate reader (Biotek, USA; distributor: WITTEC AG, Littau, Switzerland). Biacore experiments were specifically conducted with Hexa-hzG3V9 and Hexa-hz1D10v1 which are dAb-Fc fusion proteins. […] Binding of human and cyno OX40-Fc molecules was determined by successively injecting these proteins on the 4 flow-paths (flow-path 1 and 3 being used as references) at a concentration of 200 nM and a flow rate of 30 uL/min for 240 seconds. Regeneration between the two injections was done using 3M MgCl2, at 30 uL/min for 60 seconds. Using these two approaches, human/rat OX40 binding was assessed (table 16).

human OX40-Fc = biological target: T3, human OX40-Fc (human); experiment: ELISA on coated human OX40-Fc, antibody 10 µg/ml
T3 construct: also called recombinant human OX40-Fc; human OX40 (HHHH)
Procedure: as §1

human OX40 on cells [2] = biological target: T1, human OX40 on cells; experiment: flow cytometry on HPB-ALL cells, 10 µg/ml antibody
Procedure: HPB-ALL cells (DSMZ, Braunschweig, Germany, Cat. No: ACC483) were used as a human OX40 positive cell line for FACS staining. HPB-ALL were maintained in RPMI 1640 supplemented with 10% FCS and 100 U/ml Penicillin and 100 μg/ml streptomycin. 4×10e5 HPB-ALL cells in FACS buffer (PBS supplemented with 1% BSA and 0.1% sodium azide) were incubated for 45 min on ice with the anti-OX40 antibody of interest kept at a concentration of 10 μg/ml An irrelevant human IgG1 was used as an isotype control; the cells were incubated with a 1/200 dilution of anti-Human Fc-PE (EBioscience, Vienna, Austria) for 45 min on ice. Cells were then washed again and resuspended in 200 μl FACS buffer. The relative mean fluorescence of each sample was measured on a FACSCalibur instrument (BD Biosciences, Allschwil, Switzerland).
A first set of 16 humanized antibodies of human gamma one isotype were prepared. These first humanized candidates were assessed for transient expression in HEK293E cells and binding to HB-ALL cell by flow cytometry (Table 7).

[3] = biological target: T2, recombinant human OX40-his protein; experiment: SPR (BIAcore 2000), antibody captured on Protein A, OX40-his injected
Procedure: SPR analysis was used to measure the association and dissociation rate constants for the binding kinetics of the anti-OX40 antibodies. The binding kinetics were measured on a BIAcore 2000 (BIAcore-GE Healthcare Europe GmbH, Glattbrugg, Switzerland) at room temperature and analyzed with the BiaEvaluation software (v4.1, GE Healthcare Europe GmbH).
Measurements were performed on CM5 sensor chips (Biacore 2000, GE Healthcare Europe GmbH, Cat. No: BR-1000-14) individually coupled with Protein A (Sigma, Buchs, Switzerland, Cat. No: P7837) using a commercial amine coupling kit (GE Healthcare Europe GmbH, Cat. No: BR-1000-50). 200-600 RUs of humanized antibody were captured. Dilution series of OX40-his were injected at a flow rate of 10 μl/min in HBS-EP buffer (GE Healthcare Europe GmbH, Cat. No: BR1001-88). After each binding event, the surface was regenerated with 10 μl of glycine buffer pH 1.5. Experimental data were processed using a 1:1 Langmuir model with local Rmax. The dissociation time was about 7 min. Measurements were performed in duplicates or triplicates and included zero-concentration samples for referencing. Both Chit and residual values were used to evaluate the quality of a fit between the experimental data and individual binding models.

Sequence of rat OX40-Fc (rat) (chain, as listed by the source limits assumed): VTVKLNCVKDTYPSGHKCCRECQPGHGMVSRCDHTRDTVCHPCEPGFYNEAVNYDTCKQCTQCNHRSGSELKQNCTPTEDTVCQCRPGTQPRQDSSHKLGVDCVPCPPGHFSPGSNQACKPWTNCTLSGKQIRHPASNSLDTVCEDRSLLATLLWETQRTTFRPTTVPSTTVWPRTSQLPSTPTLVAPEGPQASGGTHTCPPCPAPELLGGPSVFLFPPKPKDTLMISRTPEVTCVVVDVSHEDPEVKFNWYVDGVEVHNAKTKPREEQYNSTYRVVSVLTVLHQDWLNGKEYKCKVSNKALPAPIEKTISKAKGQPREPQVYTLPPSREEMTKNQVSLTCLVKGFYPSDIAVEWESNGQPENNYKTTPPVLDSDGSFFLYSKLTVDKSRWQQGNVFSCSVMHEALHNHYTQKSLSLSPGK

Row | Binder | % donor responder (>2), SEB assay, IL-2 release (human OX40 on cells [1]) | Mean, normalized IL-2 release, SEB assay (human OX40 on cells [1]) | binding result (rat OX40-Fc) | binding result (human OX40-Fc) | MFI (human OX40 on cells [2]) | Kd [3] | koff [3] | kon [3]
1 | 106-222 IgG1 (antibody, V domains shown) VH: QVQLVQSGSELKKPGASVKVSCKASGYTFTDYSMHWVRQAPGQGLKWMGWINTETGEPTYADDFKGRFVFSLDTSVSTAYLQISSLKAEDTAVYYCANPYYDYVSYYAMDYWGQGTTVTVSS VL: DIQMTQSPSSLSASVGDRVTITCKASQDVSTAVAWYQQKPGKAPKLLIYSASYLYTGVPSRFSGSGSGTDFTFTISSLQPEDIATYYCQQHYSTPRTFGQGTKLEIKR | 6% | 0.86 | no binding (tested: 10 µg/ml) | binds | – | – | – | –
2 | 11D4 IgG2 (antibody, V domains shown) VH: EVQLVESGGGLVQPGGSLRLSCAASGFTFSSYSMNWVRQAPGKGLEWVSYISSSSSTIDYADSVKGRFTISRDNAKNSLYLQMNSLRDEDTAVYYCARESGWYLFDYWGQGTLVTVSS VL: DIQMTQSPSSLSASVGDRVTITCRASQGISSWLAWYQQKPEKAPKSLIYAASSLQSGVPSRFSGSGSGTDFTLTISSLQPEDFATYYCQQYNSYPPTFGGGTKVEIKR | 18% | 1.87 | no binding (tested: 10 µg/ml) | – | – | – | – | –
3 | 9B12 IgG1 (antibody, V domains shown, also called OX40mab24) VH: QVQLQESGPGLVKPSQTLSLTCAVYGGSFSSGYWNWIRKHPGKGLEYIGYISYNGITYHNPSLKSRITINRDTSKNQYSLQLNSVTPEDTAVYYCARYKYDYDGGHAMDYWGQGTLVTVSS VL: DIQMTQSPSSLSASVGDRVTITCRASQDISNYLNWYQQKPGKAPKLLIYYTSKLHSGVPSRFSGSGSGTDYTLTISSLQPEDFATYYCQQGSALPWTFGQGTKVEIKR | 50% | 2.36 | no binding (tested: 10 µg/ml) | binds | – | – | – | –
4 | 2H6_hzG3v9_8 (bispecific antibody, human IgG1, kappa, L234A L235A) heavy: not shown light: DIQLTQSPSSLSASVGDRVTITCRASESVDNYGISFMNWFQQKPGKAPKLLIYAASNQKSGVPSRFSGSGSGTDFTLTISSLQPEDFATYFCQQSKEVPLTFGQGTKVEIKRTVAAPSVFIFPPSDEQLKSGTASVVCLLNNFYPREAKVQWKVDNALQSGNSQESVTEQDSKDSTYSLSSTLTLSKADYEKHKVYACEVTHQGLSSPVTKSFNRGEC | 100% | 48.4 | – | – | – | – | – | –
5 | Humanized 7H11 VH1/VL1 IgG1 (antibody, V domains shown, human IgG1, kappa; also called Humanized VH1-VL1 IgG1) VH: QVQLVQSGAEVKKPGASVKVSCKASGYTFTRYYMHWVRQAPGQGLEWMGWIYPGDGSTKYSQKFQGRVTITRDTSASTAYMELSSLRSEDTAVYYCAREYGNYDYWGQGTLVTVSS VL: DIVMTQSPDSLAVSLGERATINCKSSQSLLNSGNQKNYLAWYQQKPGQPPKLLIYGASTRESGVPDRFSGSGSGTDFTLTISSLQAEDVAVYYCQNDHSYPYTFGQGTKLEIKR | – | – | – | – | 120 | 35 nM | 0.00058 s⁻¹ | 16700 M⁻¹ s⁻¹
6 | Humanized 7H11 VH3/VL1 IgG1 (antibody, V domains shown, human IgG1, kappa; also called Humanized VH3-VL1 IgG1) VH: QVQLVQSGAEVKKPGASVKVSCKASGYTFTRYYMHWVRQAPGQGLEWMGIIYPGDGSTSYAQKFQGRVTMTRDTSTSTVYMELSSLRSEDTAVYYCAREYGNYDYWGQGTLVTVSS VL: DIVMTQSPDSLAVSLGERATINCKSSQSLLNSGNQKNYLAWYQQKPGQPPKLLIYGASTRESGVPDRFSGSGSGTDFTLTISSLQAEDVAVYYCQNDHSYPYTFGQGTKLEIKR | – | – | – | – | 121 | 80 nM | 0.0055 s⁻¹ | 62500 M⁻¹ s⁻¹
7 | Humanized 7H11 VH2/VL1 IgG1 (antibody, V domains shown, human IgG1, kappa; also called Humanized VH2-VL1 IgG1) VH: QVQLVQSGAEVKKPGASVKVSCKASGYTFTRYYMHWVRQAPGQGLEWMGWIYPGDGSTNYAQKFQGRVTMTRDTSISTAYMELSRLRSDDTAVYYCAREYGNYDYWGQGTLVTVSS VL: DIVMTQSPDSLAVSLGERATINCKSSQSLLNSGNQKNYLAWYQQKPGQPPKLLIYGASTRESGVPDRFSGSGSGTDFTLTISSLQAEDVAVYYCQNDHSYPYTFGQGTKLEIKR | – | – | – | – | 120 | 21 nM | 0.0013 s⁻¹ | 58500 M⁻¹ s⁻¹
8 | 1A7 IgG1 (antibody, V domains shown) VH: EVQLVQSGAEVKKPGASVKVSCKASGYTFTDSYMSWVRQAPGQGLEWIGDMYPDNGDSSYNQKFRERVTITRDTSTSTAYLELSSLRSEDTAVYYCVLAPRWYFSVWGQGTLVTVSS VL: DIQMTQSPSSLSASVGDRVTITCRASQDISNYLNWYQQKPGKAPKLLIYYTSRLRSGVPSRFSGSGSGTDFTLTISSLQPEDFATYYCQQGHTLPPTFGQGTKVEIKR | – | – | – | binds | – | – | – | –
